This test addresses full-length human leucine-rich repeat kinase 1 (LRRK1, residues 1-2015) (human) (UniProt Q38SD2). The test can be described thus: mass photometry; undiluted 'monomer' and 'dimer' gel filtration fractions added to detergent-free buffer (20 mM Tris, 150 mM NaCl, 5 mM MgCl2 pH 8.3); OneMP mass photometer; dimer fraction held monomers and dimers at approximately a 1:2 ratio, alongside higher-order species.

Usually stoichiometry N stands for a count of units in the complex or per binding partner.

For “full-length human leucine-rich repeat kinase 1 (LRRK1, residues 1-2015) (from UniProt Q38SD2 1-2015) (enzyme)”, the stoichiometry N is 2.

The values are drawn from paper PMC10412621.
